“Also recorded” adds a separate entry of the source.
Assays:
TAX2 gene product = molecular target: T1, TAX2 gene product (Taxus cuspidata, UniProt Q9FPW3); experiment: recombinant TAX2 expressed in E. coli JM109, acetyl transacylase assay; format: biochemical; details: [3H]taxadienol and acetyl CoA co-substrates
T1 construct: Full-length insert fragments of the relevant plasmids are excised and subcloned in-frame into the expression vector pCWori+; made in house; host or cells: E. coli JM109 (pCWori+)
T1 sequence (Q9FPW3 1-440): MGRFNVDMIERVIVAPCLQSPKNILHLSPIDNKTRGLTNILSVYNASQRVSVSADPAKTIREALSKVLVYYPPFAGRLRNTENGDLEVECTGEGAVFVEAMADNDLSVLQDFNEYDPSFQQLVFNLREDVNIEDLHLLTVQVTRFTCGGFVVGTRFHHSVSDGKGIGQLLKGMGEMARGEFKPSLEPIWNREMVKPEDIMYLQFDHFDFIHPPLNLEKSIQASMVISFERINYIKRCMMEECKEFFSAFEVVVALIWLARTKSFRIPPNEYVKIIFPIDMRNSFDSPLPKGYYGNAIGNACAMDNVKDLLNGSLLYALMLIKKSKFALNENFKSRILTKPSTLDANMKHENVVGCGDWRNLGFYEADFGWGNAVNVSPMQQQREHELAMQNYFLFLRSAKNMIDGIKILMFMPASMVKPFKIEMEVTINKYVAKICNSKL
Description: To determine the identity of the putative taxadienol acetyl transacylase, TAX1 (SEQ ID NO: 28), TAX2 (SEQ ID NO: 26), and TAX6 (SEQ ID NO: 45) were subcloned in-frame into the expression vector pCWori+ (Barnes, Methods Enzymol. 272:3–14, 1996) and expressed in E. coli JM109 cells. The transformed bacteria were cultured and induced with isopropyl β-D-thiogalactoside (IPTG), and cell-free extracts were prepared and evaluated for taxadienol acetyl transacylase activity using the previously developed assay procedures (Walker et al., Arch. Biochem. Biophys. 364:273–279, 1999). Clone TAX1 (corresponding directly to Probe 1) expressed high levels of taxadienol acetyl transacylase activity (20% conversion of substrate to product), as determined by radiochemical analysis; the product of this recombinant enzyme was confirmed as taxadienyl-5α-yl acetate by gas chromatography-mass spectrometry (GC-MS) (FIGS. 5A–5G). […] Neither of the recombinant proteins expressed from TAX1 (SEQ ID NO: 28) or TAX2 (SEQ ID NO: 26) was capable of acetylating the advanced paclitaxel precursor 10-deacetyl baccatin III to baccatin III. […]

[1] = molecular target: T2, taxane-2α-O-benzoyl transferase (TAX2) (Taxus cuspidata, UniProt Q9FPW3); experiment: recombinant TAX2 benzoyl transferase screening assay (radio-HPLC); format: biochemical; details: UV and radioactivity profiles
T2 construct: Full-length insert fragments of the relevant plasmids are excised and subcloned in-frame into the expression vector pCWori+; made in house; host or cells: E. coli JM109 (pCWori+)
T2 sequence (Q9FPW3 1-440): T1 sequence (Q9FPW3 1-440)
Description: TAX2, TAX5, TAX7, TAX9, TAX10, TAX 12, and TAX13 ([…]) were expressed in bacteria using the following protocol. For a typical preparation of the recombinant enzyme, each of the E. coli cultures transformed with a pCWori+ vector harboring a putative transacylase gene was grown overnight at 37° C. in 5 mL Luria-Bertani medium supplemented with 50 μg ampicillin/mL. 1 mL of these cultures was individually added to separate aliquots of 100 mL Terrific Broth culture medium (6 g bacto-tryptone (Difco Laboratories, Spark, Md.), 12 g yeast extract (EM Science, Cherryhill, N.J.), and 2 mL glycerol in 500 mL water) and grown at 37° C. After 3 hours, the medium was supplemented with 1 mM isopropyl-β-D-thiogalactopyranoside for induction and 50 μg ampicillin/mL, and the cultures were grown at 25° C. […]
A 1-mL aliquot of each soluble enzyme preparation was incubated with 2-debenzoyl-7,13-diacetylbaccatin III (500 μM) and [7-^14C]benzoyl coenzyme A (500 μM, 9.3 μCi) for 1.5 hours at 31° C. […] The resulting crude products of the assay were dissolved in acetonitrile (50 μL) and analyzed by radio-HPLC using a Perkin Elmer HPLC ISS 200 coupled to a PACKARD RADIOMATIC™ radioactivity detector series A100 (Canberra, Ind., Meriden, Conn.) (see FIGS. 12A and 12B for a representative chromatogram). […]

B1: TAX2: full-length clone, SEQ ID NO: 25/26; taxane-2α-O-benzoyl transferase (protein, listed as Taxus cuspidata)
chain: T1 sequence (Q9FPW3 1-440)
For B1, the “taxadienol acetyl transacylase activity” value (TAX2 gene product) was “did not express taxadienol acetyl transacylase activity; also recorded: inactive” and the “product from 2-debenzoyl-7,13-diacetylbaccatin III and [7-14C]benzoyl CoA” value [1] was “coincide exactly with the retention time of authentic 7,13-diacetylbaccatin III”.

— patent US7153676B1, “Transacylases of the paclitaxel biosynthetic pathway” (priority 1999, dated 2006)
